Assay results published in paper PMC4417048 (Nature cell biology, 2015).

Legend:
[1] = molecular target: Syndetin (endogenous, human cells) (human (endogenous in H4 and HeLa)) (UniProt Q96JG6); assay: sedimentation velocity on glycerol gradients + SEC
[2] = molecular target: T1, Syndetin (endogenous, human cells) (human (endogenous in H4 and HeLa), UniProt Q96JG6-1 1-964); assay: sedimentation velocity on glycerol gradients + SEC
T1 sequence: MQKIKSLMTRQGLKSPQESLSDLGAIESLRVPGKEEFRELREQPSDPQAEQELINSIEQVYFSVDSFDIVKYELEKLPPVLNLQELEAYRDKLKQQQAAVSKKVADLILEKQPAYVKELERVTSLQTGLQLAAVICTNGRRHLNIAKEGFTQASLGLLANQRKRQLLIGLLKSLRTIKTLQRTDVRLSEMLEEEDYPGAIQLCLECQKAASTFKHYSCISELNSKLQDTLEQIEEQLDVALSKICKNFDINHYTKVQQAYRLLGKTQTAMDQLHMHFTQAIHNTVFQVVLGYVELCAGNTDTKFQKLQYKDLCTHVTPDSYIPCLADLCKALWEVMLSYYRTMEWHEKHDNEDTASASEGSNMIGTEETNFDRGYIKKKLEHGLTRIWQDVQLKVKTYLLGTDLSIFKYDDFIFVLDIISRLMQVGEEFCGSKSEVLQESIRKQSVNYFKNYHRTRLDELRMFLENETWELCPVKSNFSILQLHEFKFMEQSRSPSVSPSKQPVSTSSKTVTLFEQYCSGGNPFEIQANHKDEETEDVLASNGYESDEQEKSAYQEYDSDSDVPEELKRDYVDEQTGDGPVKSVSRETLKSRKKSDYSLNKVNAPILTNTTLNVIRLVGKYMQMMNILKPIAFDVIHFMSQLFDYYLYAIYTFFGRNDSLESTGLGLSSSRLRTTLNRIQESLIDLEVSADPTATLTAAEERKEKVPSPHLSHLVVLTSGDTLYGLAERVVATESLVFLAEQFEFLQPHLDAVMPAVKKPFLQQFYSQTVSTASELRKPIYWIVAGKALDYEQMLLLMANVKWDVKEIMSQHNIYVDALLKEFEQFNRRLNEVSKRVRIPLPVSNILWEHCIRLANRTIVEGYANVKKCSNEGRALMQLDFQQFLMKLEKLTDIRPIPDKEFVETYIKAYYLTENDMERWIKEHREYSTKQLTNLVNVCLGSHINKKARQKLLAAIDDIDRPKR

Vps53 (endogenous, human cells) (from UniProt Q5VIR6 1-832) (natural protein)
stoichiometry N [1]: 1

B1: Ang2 (endogenous, human cells) (natural protein)
chain: MAAAAAAGPSPGSGPGDSPEGPEGEAPERRRKAHGMLKLYYGLSEGEAAGRPAGPDPLDPTDLNGAHFDPEVYLDKLRRECPLAQLMDSETDMVRQIRALDSDMQTLVYENYNKFISATDTIRKMKNDFRKMEDEMDRLATNMAVITDFSARISATLQDRHERITKLAGVHALLRKLQFLFELPSRLTKCVELGAYGQAVRYQGRAQAVLQQYQHLPSFRAIQDDCQVITARLAQQLRQRFREGGSGAPEQAECVELLLALGEPAEELCEEFLAHARGRLEKELRNLEAELGPSPPAPDVLEFTDHGGSGFVGGLCQVAAAYQELFAAQGPAGAEKLAAFARQLGSRYFALVERRLAQEQGGGDNSLLVRALDRFHRRLRAPGALLAAAGLADAATEIVERVARERLGHHLQGLRAAFLGCLTDVRQALAAPRVAGKEGPGLAELLANVASSILSHIKASLAAVHLFTAKEVSFSNKPYFRGEFCSQGVREGLIVGFVHSMCQTAQSFCDSPGEKGGATPPALLLLLSRLCLDYETATISYILTLTDEQFLVQDQFPVTPVSTLCAEARETARRLLTHYVKVQGLVISQMLRKSVETRDWLSTLEPRNVRAVMKRVVEDTTAIDVQVGLLYEEGVRKAQSSDSSKRTFSVYSSSRQQGRYAPSYTPSAPMDTNLLSNIQKLFSERIDVFSPVEFNKVSVLTGIIKISLKTLLECVRLRTFGRFGLQQVQVDCHFLQLYLWRFVADEELVHLLLDEVVASAALRCPDPVPMEPSVVEVICERG
stoichiometry N [2]: 1

B2: Vps52 (endogenous, human cells) (natural protein)
chain: MAAAATMAAAARELVLRAGTSDMEEEEGPLAGGPGLQEPLQLGELDITSDEFILDEVDVHIQANLEDELVKEALKTGVDLRHYSKQVELELQQIEQKSIRDYIQESENIASLHNQITACDAVLERMEQMLGAFQSDLSSISSEIRTLQEQSGAMNIRLRNRQAVRGKLGELVDGLVVPSALVTAILEAPVTEPRFLEQLQELDAKAAAVREQEARGTAACADVRGVLDRLRVKAVTKIREFILQKIYSFRKPMTNYQIPQTALLKYRFFYQFLLGNERATAKEIRDEYVETLSKIYLSYYRSYLGRLMKVQYEEVAEKDDLMGVEDTAKKGFFSKPSLRSRNTIFTLGTRGSVISPTELEAPILVPHTAQRGEQRYPFEALFRSQHYALLDNSCREYLFICEFFVVSGPAAHDLFHAVMGRTLSMTLKHLDSYLADCYDAIAVFLCIHIVLRFRNIAAKRDVPALDRYWEQVLALLWPRFELILEMNVQSVRSTDPQRLGGLDTRPHYITRRYAEFSSALVSINQTIPNERTMQLLGQLQVEVENFVLRVAAEFSSRKEQLVFLINNYDMMLGVLMERAADDSKEVESFQQLLNARTQEFIEELLSPPFGGLVAFVKEAEALIERGQAERLRGEEARVTQLIRGFGSSWKSSVESLSQDVMRSFTNFRNGTSIIQGALTQLIQLYHRFHRVLSQPQLRALPARAELINIHHLMVELKKHKPNF
stoichiometry N [2]: 1
